Reference: patent US20240207313A1

Columns and labels:
[1] = target: T-cell surface glycoprotein CD4 [Homo sapiens] (Homo sapiens) (UniProt P01730); assay: cell-based or functional assay
[2] = target: T-cell receptor with TCR Vbeta 7.1 chain (H. sapiens rearranged TCR Vbeta 7.1) (H. sapiens); assay: cell-based or functional assay
Sequence of T-cell receptor with TCR Vbeta 7.1 chain (H. sapiens rearranged TCR Vbeta 7.1) (H. sapiens) (A0A577 whole entry, form in doubt): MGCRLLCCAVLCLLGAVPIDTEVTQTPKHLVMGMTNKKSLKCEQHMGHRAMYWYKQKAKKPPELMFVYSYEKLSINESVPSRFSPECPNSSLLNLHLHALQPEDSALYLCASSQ

CD4-positive cells remaining in the culture after CAR transduction (flow cytometry) [1]: 45%
TCR Vβ7.1-positive cells remaining five days after CAR transduction (flow cytometry) [2]: 1.2%
Substance: CART20 anti-CD20 chimeric antigen receptor (scFv of monoclonal antibody Leu16 in the third-generation CAR backbone), expressed on transduced human T cells
